What was measured:
[1] = biological target: human chemokine (C-C motif) receptor 8 (CCR8) (human) (UniProt P51685); assay: flow cytometry, human PBMC, CD3+ gate; % cells stained by PE-L263G8 after isotype control block
[2] = biological target: T1, human chemokine (C-C motif) receptor 8 (CCR8) (human, UniProt P51685 1-355); assay: flow cytometry blocking, human PBMC, CD3+ gate; competitor PE-AB5
T1 construct: also called hCCR8
Description: (§1) For blocking studies, 100 μL of the cell suspension were incubated with 10 μg purified isotype control, AB1, AB2, AB3, AB4, AB5, AB8, AB9, AB10, AB11, AB12, AB13, AB14, AB15, and Commercial ABI antibodies, or isotype control, as blocking agents.
(§2) After incubation with the blocking agent, the cells were incubated with 0.25 μg of the indicated PE-conjugated antibody plus anti-human CD4 APC or anti-human CD3 for another 15 minutes in the dark and then washed 2 times with Cell Staining Buffer, and acquired in a FACSCanto II flow cytometer (BD Biosciences); the data was analyzed using FCS Express (De Novo Software); MFI correspond to the CCR8+ CD4+ lymphocytes or CCR8+ CD3+ lymphocytes.
(§3) Percentage original MFI was calculated by dividing the MFI of samples blocked with AB1, AB2, AB3, AB4, AB5, AB6, AB7, AB8, AB9, AB10, AB11, AB12, AB13, AB14, AB15, and Commercial ABI antibodies, by the MFI of samples blocked with the corresponding isotype control. This value was subtracted from 100 to get a blocking percentage. The formula is shown below: […]

[3] = biological target: T1, human chemokine (C-C motif) receptor 8 …; assay: flow cytometry blocking, human PBMC, CD3+ gate; competitor PE-AB6
Description: as §1, §2, §3

[4] = biological target: T1, human chemokine (C-C motif) receptor 8 …; assay: flow cytometry blocking, human PBMC, CD3+ gate; competitor PE-AB7
Description: as §1, §2, §3

[5] = biological target: T1, human chemokine (C-C motif) receptor 8 …; assay: flow cytometry blocking, human PBMC, CD3+ gate; competitor PE-AB8
Description: as §1, §2, §3

[6] = biological target: T1, human chemokine (C-C motif) receptor 8 …; assay: flow cytometry blocking, human PBMC, CD3+ gate; competitor PE-433H
[7] = biological target: T1, human chemokine (C-C motif) receptor 8 …; assay: flow cytometry blocking, human PBMC, CD3+ gate; competitor PE-AB10
Description: as §1, §2, §3

[8] = biological target: T1, human chemokine (C-C motif) receptor 8 …; assay: flow cytometry blocking, human PBMC, CD3+ gate; competitor PE-AB11
Description: as §1, §2, §3

[9] = biological target: T1, human chemokine (C-C motif) receptor 8 …; assay: flow cytometry blocking, human PBMC, CD3+ gate; competitor PE-AB12
Description: as §1, §2, §3

[10] = biological target: T1, human chemokine (C-C motif) receptor 8 …; assay: flow cytometry blocking, human PBMC, CD3+ gate; competitor PE-AB13
Description: as §1, §2, §3

[11] = biological target: T1, human chemokine (C-C motif) receptor 8 …; assay: flow cytometry blocking, human PBMC, CD3+ gate; competitor PE-AB14
Description: as §1, §2, §3

[12] = biological target: T1, human chemokine (C-C motif) receptor 8 …; assay: flow cytometry blocking, human PBMC, CD3+ gate; competitor PE-AB15
Description: as §1, §2, §3

[13] = biological target: T1, human chemokine (C-C motif) receptor 8 …; assay: flow cytometry blocking, human PBMC, CD3+ gate; competitor PE-L263G8
[14] = biological target: T1, human chemokine (C-C motif) receptor 8 …; assay: flow cytometry blocking, human PBMC, CD3+ gate; % cells stained by competitor PE-AB5 after block
Description: as §1, §2

[15] = biological target: T1, human chemokine (C-C motif) receptor 8 …; assay: flow cytometry blocking, human PBMC, CD3+ gate; % cells stained by competitor PE-AB6 after block
Description: as §1, §2

[16] = biological target: T1, human chemokine (C-C motif) receptor 8 …; assay: flow cytometry blocking, human PBMC, CD3+ gate; % cells stained by competitor PE-AB7 after block
Description: as §1, §2

[17] = biological target: T1, human chemokine (C-C motif) receptor 8 …; assay: flow cytometry blocking, human PBMC, CD3+ gate; % cells stained by competitor PE-AB8 after block
Description: as §1, §2

[18] = biological target: T1, human chemokine (C-C motif) receptor 8 …; assay: flow cytometry blocking, human PBMC, CD3+ gate; % cells stained by competitor PE-433H after block
Description: as §1, §2

[19] = biological target: T1, human chemokine (C-C motif) receptor 8 …; assay: flow cytometry blocking, human PBMC, CD3+ gate; % cells stained by competitor PE-AB10 after block
Description: as §1, §2

[20] = biological target: T1, human chemokine (C-C motif) receptor 8 …; assay: flow cytometry blocking, human PBMC, CD3+ gate; % cells stained by competitor PE-AB11 after block
Description: as §1, §2

[21] = biological target: T1, human chemokine (C-C motif) receptor 8 …; assay: flow cytometry blocking, human PBMC, CD3+ gate; % cells stained by competitor PE-AB12 after block
Description: as §1, §2

[22] = biological target: T1, human chemokine (C-C motif) receptor 8 …; assay: flow cytometry blocking, human PBMC, CD3+ gate; % cells stained by competitor PE-AB13 after block
Description: as §1, §2

[23] = biological target: T1, human chemokine (C-C motif) receptor 8 …; assay: flow cytometry blocking, human PBMC, CD3+ gate; % cells stained by competitor PE-AB14 after block
Description: as §1, §2

[24] = biological target: T1, human chemokine (C-C motif) receptor 8 …; assay: flow cytometry blocking, human PBMC, CD3+ gate; % cells stained by competitor PE-AB15 after block
Description: as §1, §2

[25] = biological target: T1, human chemokine (C-C motif) receptor 8 …; assay: flow cytometry blocking, human PBMC, CD3+ gate; % cells stained by competitor PE-L263G8 after block
Description: as §1, §2

[26] = biological target: human chemokine (C-C motif) receptor 8 (CCR8) (human) (UniProt P51685); assay: flow cytometry, human PBMC, CD3+ gate; % cells stained by PE-433H after isotype control block

T1 sequence (P51685 whole entry): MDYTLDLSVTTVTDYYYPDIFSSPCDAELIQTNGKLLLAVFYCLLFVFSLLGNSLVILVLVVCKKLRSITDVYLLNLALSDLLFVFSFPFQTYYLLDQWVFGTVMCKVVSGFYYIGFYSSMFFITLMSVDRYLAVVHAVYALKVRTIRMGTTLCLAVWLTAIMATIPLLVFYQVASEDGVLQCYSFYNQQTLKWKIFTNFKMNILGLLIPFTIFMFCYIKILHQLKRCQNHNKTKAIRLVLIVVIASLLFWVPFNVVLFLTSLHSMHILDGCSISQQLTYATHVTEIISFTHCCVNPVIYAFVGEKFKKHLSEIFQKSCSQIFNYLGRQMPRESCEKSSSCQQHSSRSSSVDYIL
Sequence of human chemokine (C-C motif) receptor 8 (CCR8) (human) (P51685 whole entry): as above

Molecule: Commercial L263G8 anti-human CCR8 antibody
- % Positive cells [1]: 5.87%

B1: anti-CCR8 monoclonal antibody AB11 (antibody, V domains shown)
VH: EVQLVESGGGLVQPKGSLKLSCAASGFAFNTYAMNWVRQAPGKGLEWIARLRSKSNFYATYYADSVKDRFTISRDDSQSMLYLQMNNLKTEDTAVYYCVRGRELGPSYAMDYWGQGTSVTVSS
VL: DIVMTQAAPSVPVTPGESVSISCRSSKSLLHSNGNTYLYWFLQRPGQSPQLLIYRMSNLASGVPDRFSGSGSGTAFTLRISRVEAEDVGVYYCMQHLEYPYTFGGGTKLEIK
notes: Hybridoma monoclonal; also called antibody 11; clone 11
- % Blocking [2]: -2.41%
- % Blocking [3]: 2.9%
- % Blocking [4]: 2.53%
- % Blocking [5]: -4.02%
- % Blocking [6]: 47.2%
- % Blocking [7]: 96.5%
- % Blocking [8]: 98.7%
- % Blocking [9]: 97.7%
- % Blocking [10]: 94.1%
- % Blocking [11]: 98.3%
- % Blocking [12]: 97.6%
- % Blocking [13]: 92.7%
- % Positive cells [14]: 8.49%
- % Positive cells [15]: 8.04%
- % Positive cells [16]: 8.87%
- % Positive cells [17]: 8.8%
- % Positive cells [18]: 3.73%
- % Positive cells [19]: 0.21%
- % Positive cells [20]: 0.09%
- % Positive cells [21]: 0.17%
- % Positive cells [22]: 0.39%
- % Positive cells [23]: 0.12%
- % Positive cells [24]: 0.16%
- % Positive cells [25]: 0.43%

B2: anti-CCR8 monoclonal antibody AB13 (antibody, V domains shown)
VH: EVQLVETGGGLVQPKGSLKLSCAASGFTFNAYAMNWVRQAPGKGLEWVARIRTKSNNYATYYADSVKDRFTISRDDSQTMLYLQMNNLKTEDTAMYYCVRDRATVTTGRAMDYWGQGTSVTVSS
VL: DIVMTQAAPSLPVTPGESVSISCRSSKSLLHSNGNTYLYWFLQRAGQSPQLLIYRMSNLASGVPDRFSGSGSGTAFTLRISRVEAEDVGVYYCMQHLEYPFTFGSGTKLEIK
notes: Hybridoma monoclonal; also called antibody 13; clone 13
- % Blocking [2]: -1.21%
- % Blocking [3]: -4.11%
- % Blocking [4]: 30.3%
- % Blocking [5]: 25.3%
- % Blocking [6]: 6.93%
- % Blocking [7]: -2.65%
- % Blocking [8]: 0.85%
- % Blocking [9]: 20.3%
- % Blocking [10]: 34.7%
- % Blocking [11]: 39.4%
- % Blocking [12]: 46.5%
- % Blocking [13]: 20.3%
- % Positive cells [14]: 8.39%
- % Positive cells [15]: 8.62%
- % Positive cells [16]: 6.34%
- % Positive cells [17]: 6.32%
- % Positive cells [18]: 6.58%
- % Positive cells [19]: 6.19%
- % Positive cells [20]: 6.96%
- % Positive cells [21]: 6%
- % Positive cells [22]: 4.34%
- % Positive cells [23]: 4.32%
- % Positive cells [24]: 3.52%
- % Positive cells [25]: 4.68%

B3: Commercial 433H anti-human CCR8 antibody (antibody, from another filing, V domains shown)
VH: EVQLVETGGGLVQPKGSLRLSCAASGFPFNTFAMNWVRQAPGKGLEWLARIRSKSNNYATYYADSVKDRFTISRDDSRRMLYLLMNNVKFEDTAIYYCVRGKENNYGYAMDYWGQGTSVTVSS
VL: DIVMTQAAPSVPVTPGESVSISCRSSQSLLHSNGNTYLYWFLQRPGQSPQLLIYRMSNLASGVPDRFSGSGSGTAFTLRISRVEAEDVGVYYCMQHLEYPFTFGIGTKLELKR
- % Positive cells [26]: 7.07%

Reference: patent publication US20240360228A1 (BIOLEGEND, published 2024)
